{"source": "paper PMC9367475", "key": {"[1]": {"biological_target": "human DC-SIGN expressed on HEK 293T cells (DC-HEK) (human) (UniProt Q9NNX6)"}, "[2]": {"biological_target": "DC-SIGN on THP-1 cells induced with PMA and IL-4 (DC-THP-1) (human (endogenous in THP-1)) (UniProt Q9NNX6)"}}}
{"substance": "recombinant SARS-CoV-2 spike protein (from UniProt P0DTC2 14-1273) (natural protein)", "values": [{"measurement": "IFN-α mRNA (RT-qPCR, 6 h) in DC-HEK cells challenged with Spike protein pre-incubated with rfhSP-D 20 µg/ml, against Spike protein without rfhSP-D", "setting": "[1]", "value": -2.1}, {"measurement": "NF-κB mRNA (RT-qPCR, 6 h) in DC-HEK cells challenged with Spike protein pre-incubated with rfhSP-D 20 µg/ml, against Spike protein without rfhSP-D", "setting": "[1]", "value": -1.2}, {"measurement": "RANTES mRNA (RT-qPCR, 6 h) in DC-HEK cells challenged with Spike protein pre-incubated with rfhSP-D 20 µg/ml, against Spike protein without rfhSP-D", "setting": "[1]", "value": -1.3}, {"measurement": "TNF-α mRNA (RT-qPCR, 6 h) in DC-HEK cells challenged with Spike protein pre-incubated with rfhSP-D 20 µg/ml, against Spike protein without rfhSP-D", "setting": "[1]", "value": -3.3}, {"measurement": "IL-1β mRNA (RT-qPCR, 6 h and 12 h: ~ -2.5 to ~ -4 log10) in DC-THP-1 cells challenged with Spike protein pre-incubated with rfhSP-D 20 µg/ml, against Spike protein without rfhSP-D", "setting": "[2]", "value": -4}, {"measurement": "IL-6 mRNA (RT-qPCR, 12 h) in DC-THP-1 cells challenged with Spike protein pre-incubated with rfhSP-D 20 µg/ml, against Spike protein without rfhSP-D", "setting": "[2]", "value": -5}, {"measurement": "IL-8 mRNA (RT-qPCR, 6 h and 12 h: ~ -2.3 to ~ -4.8 log10) in DC-THP-1 cells challenged with Spike protein pre-incubated with rfhSP-D 20 µg/ml, against Spike protein without rfhSP-D", "setting": "[2]", "value": -4.8}, {"measurement": "MHC class II mRNA (RT-qPCR, 6 h and 12 h: - 2 to - 2.7 log10) in DC-THP-1 cells challenged with Spike protein pre-incubated with rfhSP-D 20 µg/ml, against Spike protein without rfhSP-D", "setting": "[2]", "value": -2.7}, {"measurement": "NF-κB mRNA (RT-qPCR, 6 h and 12 h: ~ -1 to ~ -4 log10) in DC-THP-1 cells challenged with Spike protein pre-incubated with rfhSP-D 20 µg/ml, against Spike protein without rfhSP-D", "setting": "[2]", "value": -4}, {"measurement": "TNF-α mRNA (RT-qPCR, 6 h and 12 h: ~ -3.1 to ~ -6.8 log10) in DC-THP-1 cells challenged with Spike protein pre-incubated with rfhSP-D 20 µg/ml, against Spike protein without rfhSP-D", "setting": "[2]", "value": -6.8}]}
